Where a chain is given by its changes, count along the chain named.
Assays:
cynomolgus ADAMTS5 [1] = biological target: T1, cynomolgus ADAMTS5 (cynomolgus, UniProt A0A2K5X879 260-620); test: KinExA, in solution (N=1)
T1 construct: also called cyno ADAMTS5
T1 sequence: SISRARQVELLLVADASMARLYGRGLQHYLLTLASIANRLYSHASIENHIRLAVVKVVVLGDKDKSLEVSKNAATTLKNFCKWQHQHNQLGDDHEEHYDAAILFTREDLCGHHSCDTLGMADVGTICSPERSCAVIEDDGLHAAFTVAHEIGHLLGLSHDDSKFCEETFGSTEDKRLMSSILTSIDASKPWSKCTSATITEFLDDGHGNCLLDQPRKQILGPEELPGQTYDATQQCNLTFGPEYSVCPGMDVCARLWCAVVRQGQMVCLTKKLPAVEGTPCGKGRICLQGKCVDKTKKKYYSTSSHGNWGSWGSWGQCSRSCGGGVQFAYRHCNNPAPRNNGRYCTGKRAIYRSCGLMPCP
Description: (§1) All dilutions were prepared in sample buffer (PBS+0.1% BSA+0.02% NaN₃).
(§2) Percent free Nanobody construct was plotted as a function of ADAMTS5 concentration and fitted using the KinExA Pro Software v3.6.5 to determine the KD.

rat ADAMTS5 = biological target: T2, rat ADAMTS5 (rat, UniProt Q6TY19 262-928); test: KinExA, in solution (N=1)
T2 sequence: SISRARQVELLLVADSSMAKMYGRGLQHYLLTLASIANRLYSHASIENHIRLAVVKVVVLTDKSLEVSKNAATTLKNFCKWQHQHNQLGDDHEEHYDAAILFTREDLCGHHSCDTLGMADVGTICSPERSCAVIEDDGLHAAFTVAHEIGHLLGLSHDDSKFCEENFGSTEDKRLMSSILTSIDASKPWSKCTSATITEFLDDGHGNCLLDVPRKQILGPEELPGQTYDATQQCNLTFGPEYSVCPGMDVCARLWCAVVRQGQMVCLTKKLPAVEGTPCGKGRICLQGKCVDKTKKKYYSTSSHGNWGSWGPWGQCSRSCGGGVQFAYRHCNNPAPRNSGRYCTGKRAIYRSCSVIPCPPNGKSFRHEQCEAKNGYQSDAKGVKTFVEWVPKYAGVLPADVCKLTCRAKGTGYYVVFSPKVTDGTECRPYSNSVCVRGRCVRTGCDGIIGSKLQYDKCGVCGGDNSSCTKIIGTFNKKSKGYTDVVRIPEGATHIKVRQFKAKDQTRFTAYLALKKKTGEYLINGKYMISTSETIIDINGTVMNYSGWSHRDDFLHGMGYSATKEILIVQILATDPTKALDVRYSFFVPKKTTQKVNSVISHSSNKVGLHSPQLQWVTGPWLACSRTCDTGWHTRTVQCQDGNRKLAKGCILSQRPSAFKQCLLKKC
Description: as §1, §2

human ADAMTS5 [2] = biological target: T3, human ADAMTS5 (human, UniProt Q9UNA0 262-622, limits assumed); test: cell-based or functional assay
T3 sequence: T1 sequence with Q214L, G356S

cynomolgus ADAMTS5 [3] = biological target: T1, cynomolgus ADAMTS5; test: cell-based or functional assay
rat MMP13 (activated) [4] = biological target: T4, rat MMP13 (activated) (rat, UniProt P23097 99-466); test: cell-based or functional assay
[5] = biological target: T5, human MMP13 catalytic domain (human, UniProt P45452 104-274); test: cell-based or functional assay
[6] = biological target: T6, cynomolgus MMP13 catalytic domain (cynomolgus, UniProt A0A2K5U988 104-274); test: cell-based or functional assay
[7] = biological target: T7, rat MMP13 catalytic domain (rat, UniProt P23097 99-269); test: cell-based or functional assay
human ADAMTS5 [8] = biological target: T3, human ADAMTS5; test: KinExA, in solution, without Aggrecan G1-IGD-G2 (average, N=3)
Description: as §1, §2

rat MMP13 (activated) [9] = biological target: T4, rat MMP13 (activated); test: FRET-based kinetic enzyme assay, IC50 equals KI (average, N=2)
Description: (§3) All dilutions were made in assay buffer (50 mM Tris (pH 7.5), 100 mM NaCl, 10 mM CaCl₂)*2H₂O, 0.01% Tween20). […] This collagen-based substrate contains the generic MMP cleavage sequence Proline-Leucine-Glycine-Leucine (PLGL) and is labelled with a fluorochrome, Mca, and a quencher, Dpa. […] Starting within one minute after addition of the substrate, fluorescence was measured kinetically every minute for a total of 120 cycles (2 hours) using a Tecan F200 plate reader.
(§4) The obtained progress curves (fluorescent signal in function of reaction time) were analyzed using GraphPad Prism software, by fitting the linear portion of each progress curve with a straight line (Y=slope*X+Y-intercept).

human MMP13 (activated) [10] = biological target: T8, human MMP13 (activated) (human, UniProt P45452 104-471); test: FRET-based kinetic enzyme assay, IC50 equals KI (average, N=3)
T8 construct: also called human pro MMP13
Description: as §3, §4

[11] = biological target: T6, cynomolgus MMP13 catalytic domain; test: as above
Description: as §3, §4

[12] = biological target: T7, rat MMP13 catalytic domain; test: as above
Description: as §3, §4

[13] = biological target: T5, human MMP13 catalytic domain; test: FRET-based kinetic enzyme assay, IC50 equals KI (average, N=6)
Description: as §3, §4

human ADAMTS5 [14] = biological target: T3, human ADAMTS5; test: KinExA, in solution, in presence of 2 nM Aggrecan G1-IGD-G2 (average, N=3)
Description: as §1, §2

[15] = biological target: T9, recombinant cynomolgus Aggrecan G1-IGD-G2 (cynomolgus); test: SPR (ProteOn XPR36), Aggrecan G1-IGD-G2 immobilized, 949 as analyte (average, N=2)
T9 construct: domain: G1-IGD-G2; also called Cy G1-IGD-G2
Description: (§5) Dissociation time was 10 min. After each sample injection the surfaces were regenerated with 10 mM glycine pH 1.5. […] This change in refractive index causes a change in the intensity and angle of reflected light which is quantitatively measured in real-time and plotted as response units (RU) versus time on a sensorgram. The kinetic constants were calculated from the obtained sensorgrams using ProteOn Manager 3.1.0 version 3.1.0.6 software and the ‘kinetic Langmuir kₐ/kd simultaneous’ model.

[16] = biological target: T10, recombinant rat Aggrecan G1-IGD-G2 (rat, UniProt P07897 20-684, limits assumed); test: SPR (ProteOn XPR36), Aggrecan G1-IGD-G2 immobilized, 949 as analyte (average, N=3)
T10 construct: domain: G1-IGD-G2; also called Rat G1-IGD-G2
Description: as §5

[17] = biological target: T11, recombinant human Aggrecan G1-IGD-G2 (human, UniProt P16112 20-676); test: SPR (ProteOn XPR36), Aggrecan G1-IGD-G2 immobilized, 949 as analyte (average, N=4)
T11 construct: also called Hu G1-IGD-G2
Description: as §5

human ADAMTS5 [18] = biological target: T3, human ADAMTS5; test: cell-based or functional assay; remark: listed apart in the source
human ADAMTS5 [19] = biological target: T3, human ADAMTS5; test: SPR (Biacore T100), ADAMTS5 immobilized on CM5, 100 nM ISVD, Experiment 1
Description: (§6) Species cross-reactivity was initially evaluated via SPR-based off-rate analysis on a Biacore T100 instrument. Polypeptides were tested for binding to human, cynomolgus monkey (“cyno”), guinea pig, mouse, and bovine ADAMTS5. To this end, recombinant ADAMTS5 was immobilized onto a CM5 chip via amine coupling using EDC and NHS. […] Off-rate for each individual ADAMTS5 was determined by fitting a 1:1 interaction model (Langmuir model) onto the individual dissociation curves using the BIA Evaluation software. As a reference, off-rates on human ADAMTS5 were determined in each experiment.

cynomolgus ADAMTS5 [20] = biological target: T1, cynomolgus ADAMTS5; test: as above
Description: as §6

guinea pig ADAMTS5 = guinea pig ADAMTS5 (guinea pig); test: as above
Description: as §6

human ADAMTS5 [21] = biological target: T3, human ADAMTS5; test: SPR (Biacore T100), ADAMTS5 immobilized on CM5, 100 nM ISVD, Experiment 2
Description: as §6

mouse ADAMTS5 = biological target: T12, mouse ADAMTS5 (mouse, UniProt Q9R001 262-622, limits assumed); test: as above
T12 sequence (looked up): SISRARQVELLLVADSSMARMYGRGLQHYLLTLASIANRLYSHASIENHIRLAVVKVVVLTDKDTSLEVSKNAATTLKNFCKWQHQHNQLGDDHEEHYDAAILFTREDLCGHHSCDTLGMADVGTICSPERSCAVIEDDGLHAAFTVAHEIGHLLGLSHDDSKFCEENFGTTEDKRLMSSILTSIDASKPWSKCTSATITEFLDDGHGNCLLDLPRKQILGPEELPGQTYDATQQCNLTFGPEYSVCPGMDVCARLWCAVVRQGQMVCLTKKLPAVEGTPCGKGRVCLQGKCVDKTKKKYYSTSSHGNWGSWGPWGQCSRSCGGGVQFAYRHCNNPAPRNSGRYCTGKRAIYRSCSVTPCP
Description: as §6

human ADAMTS5 [22] = biological target: T3, human ADAMTS5; test: SPR (Biacore T100), ADAMTS5 immobilized on CM5, 100 nM ISVD, Experiment 3
Description: as §6

human MMP13 (activated) [23] = biological target: T8, human MMP13 (activated); test: cell-based or functional assay
rat MMP13 (activated) [24] = biological target: T4, rat MMP13 (activated); test: cell-based or functional assay; remark: listed apart in the source
dog MMP13 (activated) = dog MMP13 (activated) (dog, UniProt A0A8I3MWY2 129-496); test: cell-based or functional assay
bovine MMP13 (activated) = bovine MMP13 (activated) (bovine, UniProt O77656 104-471, limits assumed); test: cell-based or functional assay
[25] = biological target: cynomolgus MMP13 (activated) (cynomolgus, UniProt A0A2K5U988 104-471); test: cell-based or functional assay

B1: polypeptide 949 (62C02-2F03-114F08-114F08, 35GS linkers) (other)
chain: EVQLVESGGGVVQPGGSLRLSCAASGFAFSAAYMSWVRQAPGKGLEWVSSISDDGSKTYYADSVKGRFTISRDNSKNTVYLQMNSLRPEDTALYYCNTGYGATTTRPGRYWGQGTLVTVSSGGGGSGGGGSGGGGSGGGGSGGGGSGGGGSGGGGSEVQLVESGGGVVQPGGSLRLSCAASGRTVSSYAMGWFRQAPGKEREFVAGISRSAERTYYVDSLKGRFTISRDNSKNTVYLQMNSLRPEDTALYYCAADLDPNRIFSREEYAYWGQGTLVTVSSGGGGSGGGGSGGGGSGGGGSGGGGSGGGGSGGGGSEVQLVESGGGVVQPGGSLRLSCAASGSTFIINVVRWYRRAPGKQRELVATISSGGNANYVDSVRGRFTISRDNSKNTVYLQMNSLRPEDTALYYCNVPTTHYGGVYYGPYWGQGTLVTVSSGGGGSGGGGSGGGGSGGGGSGGGGSGGGGSGGGGSEVQLVESGGGVVQPGGSLRLSCAASGSTFIINVVRWYRRAPGKQRELVATISSGGNANYVDSVRGRFTISRDNSKNTVYLQMNSLRPEDTALYYCNVPTTHYGGVYYGPYWGQGTLVTVSSA
notes: Tetravalent, trispecific VHH construct: anti-MMP13, anti-ADAMTS5 and two anti-Aggrecan units; also called C010100949; ALX-1011
Cynomolgus ADAMTS5 [1]
  Kd: 0.0244 nM
Rat ADAMTS5
  Kd: 0.0252 nM
Human ADAMTS5 [2]
  IC50 (read off the curve); FRET-based enzymatic activity assay, Vi/V0: ~4 nM
Cynomolgus ADAMTS5 [3]
  IC50 (read off the curve); FRET-based enzymatic activity assay, Vi/V0: 3 to 4 nM
Rat MMP13 (activated) [4]
  IC50 (read off the curve); FRET-based enzymatic activity assay, Vi/V0 [right panel]: ~10 nM
[5]
  IC50 (read off the curve); FRET-based enzymatic activity assay, Vi/V0 [left panel]: ~30 nM
[6]
  IC50 (read off the curve); FRET-based enzymatic activity assay, Vi/V0 [left panel]: ~20 nM
[7]
  IC50 (read off the curve); FRET-based enzymatic activity assay, Vi/V0 [left panel]: ~30 nM
Human ADAMTS5 [8]
  Kd: 0.0327 nM
Rat MMP13 (activated) [9]
  Ki: 13 nM
Human MMP13 (activated) [10]
  Ki: 2.92 nM
[11]
  Ki: 20.2 nM
[12]
  Ki: 26.6 nM
[13]
  Ki: 27.9 nM
Human ADAMTS5 [14]
  Kd: 0.0266 nM
[15]
  Kd: 0.016 nM
[16]
  Kd: 0.0166 nM
[17]
  Kd: 0.014 nM

B2: anti-ADAMTS5 ISVD 02F03 (VHH)
VHH: EVQLVESGGGVVQPGGSLRLSCAASGRTVSSYAMGWFRQAPGKEREFVAGISRSAERTYYVDSLKGRFTISRDNSKNTVYLQMNSLRPEDTALYYCAADLDPNRIFSREEYAYWGQGTLVTVSS
notes: Purified monovalent ISVD; also called 2F03 ATS5
Human ADAMTS5 [18]
  IC50, Human AlphaLISA enzymatic assay: 0.075 nM
  IC50, Human FRET enzymatic assay: 1.8 nM
Human ADAMTS5 [19]
  koff: 3.3e-05 s⁻¹
Cynomolgus ADAMTS5 [20]
  koff: 2.2e-05 s⁻¹
Guinea pig ADAMTS5
  koff: 3.4e-05 s⁻¹
Human ADAMTS5 [21]
  koff: 6.5e-05 s⁻¹
Mouse ADAMTS5
  koff: 0.00029 s⁻¹
Human ADAMTS5 [22]
  koff: 9.7e-05 s⁻¹

B3: anti-MMP13 ISVD 62C02 (VHH)
VHH: EVQLVESGGGVVQPGGSLRLSCAASGFAFSAAYMSWVRQAPGKGLEWVSSISDDGSKTYYADSVKGRFTISRDNSKNTVYLQMNSLRPEDTALYYCNTGYGATTTRPGRYWGQGTLVTVSS
Human MMP13 (activated) [23]
  IC50, human collagenolytic assay: 1.4 nM
  IC50, human fluorogenic collagen assay: 8.3 nM
  IC50, human fluorogenic peptide assay: 1.4 nM
Rat MMP13 (activated) [24]
  IC50, rat fluorogenic peptide assay: 1.1 nM
Dog MMP13 (activated)
  IC50, dog fluorogenic peptide assay: 1 nM
Bovine MMP13 (activated)
  IC50, bovine fluorogenic peptide assay: 3.1 nM
[25]
  IC50, cyno fluorogenic peptide assay: 1.4 nM
